Laboratory results as given in patent US20050244894A1.

Target: procaspase-3 (endogenous, in cytosolic extract of 293T cells) (human) (UniProt P42574)
Assay: cell-based or functional assay

Sequence of procaspase-3 (endogenous, in cytosolic extract of 293T cells) (human) (P42574 whole entry): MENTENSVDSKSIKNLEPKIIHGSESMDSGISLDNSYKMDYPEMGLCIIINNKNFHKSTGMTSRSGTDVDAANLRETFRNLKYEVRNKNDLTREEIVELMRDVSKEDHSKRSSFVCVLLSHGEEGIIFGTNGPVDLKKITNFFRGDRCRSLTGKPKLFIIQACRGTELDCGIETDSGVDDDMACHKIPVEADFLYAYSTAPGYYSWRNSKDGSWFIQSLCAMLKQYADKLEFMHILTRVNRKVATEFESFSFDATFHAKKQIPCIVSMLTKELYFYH

A DEVDase activity of cytosolic extract of NK1R-transfected 293T cells of 7 fold was found for granzyme B (enzyme) in this work.
